Source: paper PMC8281026, “Peptide Based Inhibitors of Protein Binding to the Mitogen-Activated Protein Kinase Docking Groove” (Frontiers in Molecular Biosciences, 2021)

Biological target: ERK2, P28482
Experiment: fluorescence polarisation; competitive: complex of the MAPK with 50 nM Cf-RHDF at 60-80% complex formation titrated with increasing unlabeled peptide; 20 mM Tris pH 8.0, 100 mM NaCl, 0.05% Brij35, 2 mM TCEP; 384-well black plates; triplicates; constants are called Kd in Table 1 and Ki in the …

Chain of ERK2, P28482 (P28482 whole entry): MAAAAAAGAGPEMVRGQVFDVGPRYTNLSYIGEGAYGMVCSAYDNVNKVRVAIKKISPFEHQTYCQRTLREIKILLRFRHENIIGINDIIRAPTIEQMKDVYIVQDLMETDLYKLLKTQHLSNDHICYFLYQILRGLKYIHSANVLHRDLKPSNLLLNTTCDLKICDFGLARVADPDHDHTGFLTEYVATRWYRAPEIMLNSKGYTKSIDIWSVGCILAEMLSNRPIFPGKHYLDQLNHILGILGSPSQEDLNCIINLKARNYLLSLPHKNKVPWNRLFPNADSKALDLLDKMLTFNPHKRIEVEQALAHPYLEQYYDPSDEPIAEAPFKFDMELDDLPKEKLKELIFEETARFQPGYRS

B1: octaarginine conjugate of the native RHDF1 sequence (peptide 2) (peptide)
chain 1: SLQRKKPPWLKLDIPSC
chain 2: RRRRRRRR
modifications: not checked
With B1 the Kd was 600 nM.
